Results from doi:10.1101/2021.10.12.464104 (bioRxiv, 2021).

Target: mCer-α1 (human Na+/K+-ATPase α1 subunit fused to the C-terminus of mCerulean) (human, UniProt P05023 1-1023)
Assay: FRET or BRET

B1: PLM-YFP (human phospholemman fused to the N-terminus of YFP) (natural protein)
chain: ESPKEHDPFTYDYQSLQIGGLVIAGILFILGILIVLSRRCRCKFNQQQRTGEPDEEEGTFRSSIRRLSTRRR
- stoichiometry N: > 1
